Experimental data as given in the supplement of paper PMC9112550, “Optimization of the antimicrobial peptide Bac7 by deep mutational scanning” (BMC Biology, 2022).

tested on: Escherichia coli TOP10; assay: shrunken log2 fold change of peptide-encoding DNA abundance (4.5 h post-induction vs induction); higher = less antimicrobial activity (less host growth inhibition); conditions: time post-induction: 4.5 h; library: site-saturation at positions 5, 18, 19, 20
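Also: peptides expressed intracellularly from a pBAD plasmid library in pooled LB shake-flask culture, induced with 0.3% L-arabinose, DNA abundance read by NGS, three biological replicates, DESeq2 with apeglm shrinkage.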

Row | Sequence | shrunken log2 fold change
1 | RRIRFRPPRLPRPRPRPFTRPRP | 0.0083
2 | RRIRRRPPRLPRPRPRPEQVPRP | -0.0118
3 | RRIRFRPPRLPRPRPRPHVSPRP | -0.135
4 | RRIRKRPPRLPRPRPRPNRFPRP | -0.0658
5 | RRIRLRPPRLPRPRPRPDSTPRP | -0.603
6 | RRIRLRPPRLPRPRPRPWCYPRP | -0.489
7 | RRIRKRPPRLPRPRPRPYGHPRP | -0.162
8 | RRIRARPPRLPRPRPRPRYNPRP | -0.487
9 | RRIRIRPPRLPRPRPRPRSWPRP | 0.394
10 | RRIRGRPPRLPRPRPRPEYVPRP | 0.244
11 | RRIRVRPPRLPRPRPRPSYYPRP | -0.674
12 | RRIRGRPPRLPRPRPRPAKAPRP | 0.233
13 | RRIRARPPRLPRPRPRPWQNPRP | 0.05
14 | RRIRCRPPRLPRPRPRPSIRPRP | -0.608
15 | RRIRLRPPRLPRPRPRPMNFPRP | -0.102
16 | RRIRRRPPRLPRPRPRPRMPPRP | 0.381
17 | RRIRERPPRLPRPRPRPDPEPRP | -0.159
18 | RRIRARPPRLPRPRPRPYNPPRP | -0.388
19 | RRIRLRPPRLPRPRPRPDCHPRP | 0.092
20 | RRIRSRPPRLPRPRPRPQVGPRP | -0.175
21 | RRIRQRPPRLPRPRPRPMGTPRP | -0.00257
22 | RRIRHRPPRLPRPRPRPIYIPRP | -0.156
23 | RRIRTRPPRLPRPRPRPFMIPRP | -0.0265
24 | RRIRERPPRLPRPRPRPMFFPRP | -0.0867
25 | RRIRPRPPRLPRPRPRPGQCPRP | -0.0386

Row | Sequence | shrunken log2 fold change
26 | RRIRNRPPRLPRPRPRPFDWPRP | 0.0435
27 | RRIRCRPPRLPRPRPRPQLIPRP | 0.229
28 | RRIRDRPPRLPRPRPRPMQPPRP | 0.0977
29 | RRIRCRPPRLPRPRPRPPKRPRP | 0.797
30 | RRIRYRPPRLPRPRPRPPRLPRP | 0.0944
31 | RRIRQRPPRLPRPRPRPLVWPRP | 0.152
32 | RRIRGRPPRLPRPRPRPDSSPRP | 0.217
33 | RRIRSRPPRLPRPRPRPLPAPRP | 0.494
34 | RRIRNRPPRLPRPRPRPCAWPRP | -0.147
35 | RRIRQRPPRLPRPRPRPITTPRP | -0.0809
36 | RRIRCRPPRLPRPRPRPMRSPRP | 0.211
37 | RRIRARPPRLPRPRPRPWDCPRP | 0.0143
38 | RRIRIRPPRLPRPRPRPELQPRP | -0.0107
39 | RRIRERPPRLPRPRPRPYTTPRP | -0.49
40 | RRIRSRPPRLPRPRPRPVEGPRP | -0.00141
41 | RRIRVRPPRLPRPRPRPFGIPRP | -0.371
42 | RRIRQRPPRLPRPRPRPAARPRP | 0.246
43 | RRIRIRPPRLPRPRPRPCSEPRP | -0.0312
44 | RRIRERPPRLPRPRPRPGWTPRP | 0.0709
45 | RRIRGRPPRLPRPRPRPDPYPRP | -0.0305
46 | RRIRPRPPRLPRPRPRPCWYPRP | -0.408
47 | RRIRSRPPRLPRPRPRPIEQPRP | -0.0141
48 | RRIRNRPPRLPRPRPRPHRRPRP | 0.143
49 | RRIRYRPPRLPRPRPRPVHLPRP | -0.328
50 | RRIRPRPPRLPRPRPRPQGRPRP | -0.0433

Row | Sequence | shrunken log2 fold change
51 | RRIRWRPPRLPRPRPRPSVPPRP | 0.045
52 | RRIRSRPPRLPRPRPRPEVHPRP | 0.0346
53 | RRIRFRPPRLPRPRPRPQGNPRP | 0.311
54 | RRIRPRPPRLPRPRPRPFSYPRP | -0.192
55 | RRIRKRPPRLPRPRPRPHHCPRP | 0.0484
56 | RRIRFRPPRLPRPRPRPDVMPRP | -0.0908
57 | RRIRIRPPRLPRPRPRPVYRPRP | 0.00778
58 | RRIRNRPPRLPRPRPRPCKKPRP | -0.0371
59 | RRIRSRPPRLPRPRPRPWRYPRP | -0.336
60 | RRIRKRPPRLPRPRPRPWGKPRP | 0.0646
61 | RRIRLRPPRLPRPRPRPPGNPRP | 0.303
62 | RRIRLRPPRLPRPRPRPYLIPRP | -0.274
63 | RRIRGRPPRLPRPRPRPPGRPRP | 1.35
64 | RRIRMRPPRLPRPRPRPATEPRP | 0.996
65 | RRIRKRPPRLPRPRPRPDIGPRP | -0.0485
66 | RRIRNRPPRLPRPRPRPPSMPRP | -0.0213
67 | RRIRCRPPRLPRPRPRPRGPPRP | 0.816
68 | RRIRNRPPRLPRPRPRPSWVPRP | -0.289
69 | RRIRIRPPRLPRPRPRPWKSPRP | -0.0108
70 | RRIRDRPPRLPRPRPRPLNRPRP | -0.0679
71 | RRIRWRPPRLPRPRPRPGRNPRP | -0.000528
72 | RRIRCRPPRLPRPRPRPWHVPRP | -0.259
73 | RRIRQRPPRLPRPRPRPSIAPRP | -0.00998
74 | RRIRKRPPRLPRPRPRPMGTPRP | 0.335
75 | RRIRVRPPRLPRPRPRPFPRPRP | 0.0135

Row | Sequence | shrunken log2 fold change
76 | RRIRWRPPRLPRPRPRPISMPRP | -0.209
77 | RRIRQRPPRLPRPRPRPLQTPRP | -0.339
78 | RRIRNRPPRLPRPRPRPPPLPRP | 0.732
79 | RRIRKRPPRLPRPRPRPFSEPRP | -0.0185
80 | RRIRMRPPRLPRPRPRPCAYPRP | 0.227
81 | RRIRLRPPRLPRPRPRPKERPRP | -0.00664
82 | RRIRPRPPRLPRPRPRPFEAPRP | -0.105
83 | RRIRWRPPRLPRPRPRPSILPRP | -0.341
84 | RRIRFRPPRLPRPRPRPWHGPRP | -0.151
85 | RRIRMRPPRLPRPRPRPMGPPRP | 0.168
86 | RRIRQRPPRLPRPRPRPSKMPRP | -0.0686
87 | RRIRNRPPRLPRPRPRPPNVPRP | -0.0463
88 | RRIRDRPPRLPRPRPRPRKMPRP | 0.154
89 | RRIRQRPPRLPRPRPRPDCDPRP | -0.0763
90 | RRIRMRPPRLPRPRPRPPKKPRP | 1.01
91 | RRIRCRPPRLPRPRPRPFAFPRP | -0.169
92 | RRIRWRPPRLPRPRPRPIWWPRP | 0.314
93 | RRIRPRPPRLPRPRPRPGSLPRP | -0.0171
94 | RRIRVRPPRLPRPRPRPGMWPRP | 0.149
95 | RRIRQRPPRLPRPRPRPTYLPRP | -0.562
96 | RRIRRRPPRLPRPRPRPFHLPRP | -0.184
97 | RRIRPRPPRLPRPRPRPRNYPRP | 0.000451
98 | RRIRSRPPRLPRPRPRPWTSPRP | 0.0101
99 | RRIRLRPPRLPRPRPRPGECPRP | 0.159
100 | RRIRERPPRLPRPRPRPRVMPRP | -0.244

Row | Sequence | shrunken log2 fold change
101 | RRIRWRPPRLPRPRPRPLVEPRP | 0.2
102 | RRIRVRPPRLPRPRPRPEEAPRP | 0.26
103 | RRIRARPPRLPRPRPRPLIRPRP | -0.0546
104 | RRIRIRPPRLPRPRPRPVWNPRP | -0.576
105 | RRIRERPPRLPRPRPRPKWQPRP | -0.0355
106 | RRIRMRPPRLPRPRPRPMHVPRP | -0.207
107 | RRIRQRPPRLPRPRPRPALPPRP | 0.397
108 | RRIRSRPPRLPRPRPRPIWSPRP | 0.0119
109 | RRIRNRPPRLPRPRPRPFRTPRP | -0.066
110 | RRIRLRPPRLPRPRPRPREPPRP | 0.139
111 | RRIRSRPPRLPRPRPRPHPEPRP | 0.316
112 | RRIRNRPPRLPRPRPRPLEPPRP | 0.0692
113 | RRIRHRPPRLPRPRPRPACWPRP | 0.375
114 | RRIRFRPPRLPRPRPRPHDSPRP | 0.0531
115 | RRIRHRPPRLPRPRPRPCPCPRP | -0.114
116 | RRIRIRPPRLPRPRPRPKCGPRP | -0.0309
117 | RRIRIRPPRLPRPRPRPFSRPRP | -0.0685
118 | RRIRMRPPRLPRPRPRPHVCPRP | -0.107
119 | RRIRVRPPRLPRPRPRPVQDPRP | 0.0752
120 | RRIRHRPPRLPRPRPRPSYPPRP | -0.868
121 | RRIRVRPPRLPRPRPRPTMAPRP | 0.235
122 | RRIRFRPPRLPRPRPRPHEFPRP | -0.0308
123 | RRIRTRPPRLPRPRPRPKKMPRP | 0.0999
124 | RRIRNRPPRLPRPRPRPIDYPRP | -0.168
125 | RRIRMRPPRLPRPRPRPMNFPRP | 0.032

Row | Sequence | shrunken log2 fold change
126 | RRIRIRPPRLPRPRPRPWCNPRP | -0.33
127 | RRIRGRPPRLPRPRPRPFCQPRP | 0.0716
128 | RRIRVRPPRLPRPRPRPMYNPRP | -0.315
129 | RRIRNRPPRLPRPRPRPVDMPRP | -0.104
130 | RRIRIRPPRLPRPRPRPYEYPRP | -0.0772
131 | RRIRWRPPRLPRPRPRPCMSPRP | -0.00264
132 | RRIRERPPRLPRPRPRPFASPRP | 0.00624
133 | RRIRPRPPRLPRPRPRPYQFPRP | -0.114
134 | RRIRLRPPRLPRPRPRPDQIPRP | 0.018
135 | RRIRRRPPRLPRPRPRPYQSPRP | -0.145
136 | RRIRFRPPRLPRPRPRPRDYPRP | -0.2
137 | RRIRRRPPRLPRPRPRPANSPRP | 0.0678
138 | RRIRVRPPRLPRPRPRPRGNPRP | 0.378
139 | RRIRHRPPRLPRPRPRPTFIPRP | -0.114
140 | RRIRTRPPRLPRPRPRPVAWPRP | 0.217
141 | RRIRCRPPRLPRPRPRPWVQPRP | -0.391
142 | RRIRDRPPRLPRPRPRPMFEPRP | 0.0172
143 | RRIRNRPPRLPRPRPRPRAVPRP | 1.21
144 | RRIRNRPPRLPRPRPRPAYCPRP | -0.0951
145 | RRIRQRPPRLPRPRPRPDFDPRP | -0.0668
146 | RRIRPRPPRLPRPRPRPEVPPRP | 0.0363
147 | RRIRPRPPRLPRPRPRPMGYPRP | -0.0838
148 | RRIRDRPPRLPRPRPRPHHLPRP | -0.0476
149 | RRIRYRPPRLPRPRPRPICWPRP | 0.142
150 | RRIRLRPPRLPRPRPRPHHIPRP | -0.343
